Measurements as given in the supplement of paper PMC12042874.
± gives the uncertainty stated by the source.

Experiment: amyloid nucleation score (Sup35N fusion, yeast selection) (log enrichment); library NNK3; higher = more nucleation; inactive = no reads after selection
Procedure, shortened: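 Output and input plasmid inserts were sequenced by Illumina after psi-negative yeast carrying Sup35N fused to peptides of 20 random codons had been induced 24 hours with 100 μM copper sulfate and grown 7 days at 30°C on medium lacking adenine and uracil. The nucleation score is the DiMSum log enrichment of output over input reads, centred on the mode score of non-aggregating sequences. Sequences with under 100 input reads were excluded.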

Row | Substance | amyloid nucleation score
1 | PKQSIDCCHNWGDGNCFIVV | inactive
2 | TATHKLTNIPW | inactive
3 | HGTKREKIYLYGYCPDKNHH | inactive
4 | NPECVGDAWTVVVDYTSLWE | inactive
5 | AVMLREITNIRTKRSRNAMM | inactive
6 | TCSMSTARSCSHKSNRVMHW | inactive
7 | VVSHGF | inactive
8 | RVHLGGMYRWVCEVNV | inactive
9 | LFLLNVAYCNCFT | 3.27 ± 0.059
10 | PLFGRCHRWGVTMQYSLLIG | inactive
11 | VHREVGLDFYDNVTCTMFHI | inactive
12 | SAVVMRSQADSFDYLN | inactive
13 | HWHMIMIKCQLEFTKEVIRA | inactive
14 | WPLYNFVISWIGRTYYSVYL | inactive
15 | ASSLVVVCDAMSEASVLNKG | inactive
16 | FMVSMIIESSAGTFFMLSLV | inactive
17 | MHLLLQRIWVLQAK | inactive
18 | IEYRKITKLIKLGISGVERS | -0.978 ± 1.3
19 | TGFILLTTTVSAINVYQVYR | 2.58 ± 0.056
20 | RYKRTGIWCFECNRVLVEVF | inactive
21 | IDNMAVIYWTVNFVCRVW | 1.26 ± 0.085
22 | VRIWLNVYGVVSLGGRRLLV | inactive
23 | FKGPVDCSVIV | inactive
24 | FCRLGIRSVFIYFKVTSLIV | 0.049 ± 0.47

Row | Substance | amyloid nucleation score
25 | NSETRRIHSKVKLMLIVRLA | inactive
26 | QFTHTNIFTND | inactive
27 | RLGFDITKITWCGIYFAGWV | inactive
28 | QTMKWSIVHGQKTGGSWVDM | inactive
29 | VSLLRGVLGLVV | inactive
30 | MSMFYSNRHNPVKRTSGTGL | inactive
31 | DVPVKNSYDFMYDCWAMPCS | inactive
32 | LQFVMLRTWVLRSRGTQAVT | 0.592 ± 0.21
33 | QFLLGSWYRLLRSGTVNSPS | inactive
34 | FKRTTMCGDYAVYVTPGTSL | inactive
35 | FIHLMLNMRFWRNTFNMPHA | inactive
36 | FMDKLIESFTYCWCTFGYAH | inactive
37 | SNFVIVSWIVTNVLRM | 0.869 ± 0.094
38 | RLHFCVGPMAPYSMEQSQ | inactive
39 | VSTGTYFSVIKEEVRLGLLH | 0.537 ± 0.36
40 | FKLTDLCC | inactive
41 | VNVMWKPLGLHIVPMFAFGK | 1.13 ± 0.16
42 | YRLPMILKFLNWGFSYLVPF | inactive
43 | LNCDIVFELL | inactive
44 | CGISSILIAFCCNHYIVQWM | 1.92 ± 0.054
45 | VLFNSPTRGVHLLQTGSRQS | inactive
46 | LFLGLVLAHPPDRVRLSTVL | inactive
47 | CLVYLV | inactive
48 | MIWWYGVRSMIIDTGWYMHC | inactive

Row | Substance | amyloid nucleation score
49 | ATEDPKLESGCVAEIVPFRG | -0.481 ± 1.4
50 | LCLCYNLMSLLLLHLCREGQ | inactive
51 | LDSFATRGYSWSLGIIVMKI | inactive
52 | SYCLTGTDSVINVIGAGPSQ | inactive
53 | KAREVGIQWRKWSIIAWNNW | 1.45 ± 0.095
54 | RPVVWYISRTSVVLDCAWGS | inactive
55 | VLAMIVRHRKYKIDFIFMLD | inactive
56 | DANWDTLIFLSSRMNAWRYK | 1.86 ± 0.077
57 | NESHILPVVVMDCLRTFPTE | inactive
58 | IDLKGLGLYSTSEVWARQQK | inactive
59 | SIFKVISERQSV | inactive
60 | KRMWKGE | inactive
61 | KSYMYILKWAVLVLCSRSGL | inactive
62 | HSSCGNEVFFDSSVGSNRIL | inactive
63 | SFSRCLNSLEVRNKNSWWVG | -0.181 ± 0.75
64 | LFSLCWRCTLLKLYCPNWCY | inactive
65 | IVFFYAEIGYSPSQCRRRVA | inactive
66 | CSLCYETGSICVVSRGEDGL | inactive
67 | SRWNK | inactive
68 | TIYSLFSLYLGIWQAPASVY | -0.455 ± 0.53
69 | TWVWGKFFGFLNSDISDVRH | inactive
70 | SIDVLKTNINDIRFVIKIRR | inactive
71 | TLDILLE | inactive
72 | YNDNSNCSARMGLI | inactive

Row | Substance | amyloid nucleation score
73 | WMMMNFHLSMQD | 1.6 ± 0.087
74 | RMTMFRTEAAVVKRSVSTVV | inactive
75 | KMILRFFSI | 1.52 ± 0.063
76 | VSVLCMYFVVGPKMVRVSYG | inactive
77 | SGKSLDDRFSK | inactive
78 | YSVDGICTRAVLGPVDWVNG | inactive
79 | GLCPYSIQFFGGRSDHNW | 1.24 ± 0.15
80 | TMHQLHKFFLHMKGASIDSV | inactive
81 | MMNVMFD | 0.661 ± 0.23
82 | SSDYTLVEILSVLFCPVGCS | inactive
83 | FLDVFLEFSILIFPSVTFKC | inactive
84 | ILMRTGFILCATST | inactive
85 | AYADHHYRAGLRFPAGEVYW | inactive
86 | LRWYPDSCYVSV | inactive
87 | RDNLLGLTGNTTGDFTPGTV | inactive
88 | ICYTALGCYISSQFSGWGRM | 1.12 ± 0.088
89 | WSRLDMMLRLLAVLLPVRLD | inactive
90 | MLSMTRCAHIDGGDWFKMAV | inactive
91 | REVYLMRSEPWRLLFDGKYR | inactive
92 | YSCVVL | inactive
93 | FLVCSGSNVWTREASHGGGN | -0.188 ± 0.47
94 | VCGIVIRGKVPKDKQYNMGE | inactive
95 | ACFLIYYLR | inactive
96 | LVVGVFKGSRSYVFK | inactive

Row | Substance | amyloid nucleation score
97 | KINVD | inactive
98 | PRWLPVDGYEDSGVVEDKES | inactive
99 | RTSYVNLLYIMLDLLIRFRS | inactive
100 | RTLYMLRIALGHGPVTLEI | inactive
101 | ISCLDGCFS | inactive
102 | LFMEDVLRFGLLYLI | inactive
103 | YFTQNSSYVGV | inactive
104 | MKFPEFQASCL | inactive
105 | FRNLSDVLVRLFPVQLLSYP | inactive
106 | HNYLRS | inactive
107 | VVGIKKDRNNTYDSSWLASC | inactive
108 | YNTRGQSSFSPCEIMWLVHI | inactive
109 | MLCAPVANLYCKHPWDS | inactive
110 | HWSFQTVIDYGHPKFF | 1.45 ± 0.15
111 | RYVRCFLYTYKNFFD | inactive
112 | FGRTHAYSLFQKKSGFLLTP | inactive
113 | GLVNVVWMCFLGWPWLKVRS | inactive
114 | LHSFLRCDCSIARF | inactive
115 | YISYLDMDCEFVLS | inactive
116 | LEASESGIVEVPQPNYCITP | inactive
